Tests used:
Test in all cases: cell-based or functional assay
[1] = target: HIV-1 Env of isolate 93IN905 (Clade C) (HIV-1)
[2] = target: HIV-1 Env of isolate MGRM-Chronic-B-002, clade B (HIV-1)
[3] = target: HIV-1 MGRM-G-004 Env (pseudovirus) (HIV-1)
[4] = target: HIV-1 92UG024 envelope (Env) on pseudovirus (HIV-1)
[5] = target: HIV-1 IAVI-C3 envelope (Env) on pseudovirus (HIV-1)
[6] = target: HIV-1 Env of isolate MGRM-D-012 (clade D pseudovirus) (HIV-1)
[7] = target: HIV-1 Env of pseudovirus MGRM-F1-015 (clade F) (HIV-1)
[8] = target: HIV-1 Env of isolate 92UG001 (clade D pseudovirus) (HIV-1)
[9] = target: HIV-1 APV-6 envelope (Env) on pseudovirus (HIV-1)
[10] = target: HIV-1 Env of pseudovirus MGRM-G-027 (HIV-1)
[11] = target: HIV-1 Env of isolate 93UG077 (clade A pseudovirus) (HIV-1)
[12] = target: HIV-1 MGRM-AE-005 Env (pseudovirus) (HIV-1)
[13] = target: HIV-1 envelope glycoprotein (Env) of isolate MGRM-C-010 (HIV-1)
[14] = target: HIV-1 envelope glycoprotein (Env) of isolate MGRM-C-012 (HIV-1)
[15] = target: HIV-1 Env of isolate 92TH021 (CRF01_AE) (HIV-1)
[16] = target: HIV-1 Env of isolate MGRM-A-004 (clade A pseudovirus) (HIV-1)
[17] = target: HIV-1 Env of isolate NL43, clade B (HIV-1)
[18] = target: HIV-1 envelope glycoprotein (Env) of isolate MGRM-AE-001, subtype AE (HIV-1)
[19] = target: HIV-1 Env of isolate MGRM-F1-022 (pseudovirus) (HIV-1)
[20] = target: HIV-1 Env of isolate MGRM-AG-006 (pseudovirus) (HIV-1)
[21] = target: HIV-1 MGRM-A-010 Env (HIV-1)
[22] = target: HIV-1 92UG024 envelope protein (Env) on pseudovirus (HIV-1)
[23] = target: HIV-1 JR-CSF Env E466A (HIV-1 (isolate JR-CSF)) (UniProt P20871)
[24] = target: HIV-1 envelope glycoprotein (Env) of isolate MGRM-Chronic-B-017, on pseudovirus (HIV-1)
[25] = target: HIV-1 Env of isolate MGRM-F1-016 (pseudovirus) (HIV-1)
[26] = target: HIV-1 MGRM-D-018 envelope protein (Env) on pseudovirus (HIV-1)
[27] = target: HIV-1 envelope glycoprotein (Env) of isolate MG RM-A-007, subtype A (HIV-1)
[28] = target: HIV-1 envelope glycoprotein (Env) of isolate 93WR029, subtype A (HIV-1)
[29] = target: HIV-1 Env of isolate MGRM-F1-018 (HIV-1)
[30] = target: HIV-1 Env of isolate MGRM-G-027 (subtype G) (HIV-1)
[31] = target: HIV-1 Env of isolate VLGCA1 (pseudovirus) (HIV-1)

Row | Substance | IC90 (neutralization of pseudovirus) [1] | IC50 (µg/ml), pseudovirus neutralization [2] | IC50 (µg/ml), pseudovirus neutralization [3] | neutralization IC50 [4] | neutralization IC50 [5] | IC50, pseudovirus neutralization [6] | IC50 [7] | IC50, pseudovirus neutralization [8] | neutralization IC50 [9] | IC50 (µg/ml), pseudovirus neutralization [10] | IC50 (µg/ml), pseudovirus neutralization [11] | IC50 (µg/ml), pseudovirus neutralization [12] | IC50 (µg/ml), pseudovirus neutralization [13] | IC50 (µg/ml), pseudovirus neutralization [14] | IC90 (neutralization of pseudovirus) [15] | IC50 (µg/ml), pseudovirus neutralization [16] | IC50 (µg/ml), pseudovirus neutralization [17] | also measured
1 | 4E10 (antibody) | 12.8 µg/mL | 2.19 µg/mL | 1.47 µg/mL | 1.32 µg/mL | 5 µg/mL | 1.13 µg/mL | 0.53 µg/mL | 13.6 µg/mL | 0.4 µg/mL | 1.19 µg/mL | 10.6 µg/mL | 0.47 µg/mL | 11 µg/mL | 0.44 µg/mL | 23.5 µg/mL | 3.14 µg/mL | 4.67 µg/mL | 
2 | 4858_P08 (PGT-123) (antibody) |  |  |  |  |  |  |  |  |  |  |  |  |  |  |  |  |  | IC50, pseudovirus neutralization [18]: > 50 µg/mL; IC50 (µg/mL), pseudovirus neutralization [19]: 0.075 µg/mL; IC50 (µg/mL), pseudovirus neutralization [20]: 0.014 µg/mL; IC50, pseudovirus neutralization [21]: 0.492 µg/mL; IC50 (ug/mL), pseudovirus neutralization [22]: > 10 µg/mL; Fold IC50 increase relative to wild-type (pseudovirus neutralization) [23]: 0.6 fold; IC50, pseudovirus neutralization [24]: > 50 µg/mL; IC50 (µg/mL), pseudovirus neutralization [25]: 4.95 µg/mL; IC50 (ug/mL), pseudovirus neutralization [26]: 0.0047 µg/mL; IC50, pseudovirus neutralization [27]: > 50 µg/mL; IC50, pseudovirus neutralization [28]: > 50 µg/mL
3 | 1496_C09 (PG9) (TCN-109) (antibody) | 1.89 µg/mL | 1.41 µg/mL |  |  | 12.9 µg/mL | 9.31 µg/mL |  | 41.8 µg/mL | 0.0869 µg/mL | 0.01 µg/mL |  | 0.16 µg/mL | 12.4 µg/mL | 0.24 µg/mL | 1.99 µg/mL |  | 0.32 µg/mL | IC50, pseudovirus neutralization [21]: 0.0375 µg/mL; IC50 (µg/mL), pseudovirus neutralization [29]: 0.019 µg/mL; IC50 (ug/mL), pseudovirus neutralization [22]: 1.91 µg/mL; IC50 (µg/mL), pseudovirus neutralization [30]: 0.007 µg/mL; IC50 (µg/mL), pseudovirus neutralization [31]: 0.069 µg/mL; IC50 (ug/mL), pseudovirus neutralization [26]: 0.0444 µg/mL
4 | b12 (antibody) | > 50 µg/mL | 0.86 µg/mL | > 50 µg/mL | 49.1 µg/mL | 5 µg/mL | 0.13 µg/mL | > 50 µg/mL | 1.01 µg/mL | > 25 µg/mL | > 50 µg/mL | 47 µg/mL | 0.63 µg/mL | > 50 µg/mL | > 50 µg/mL | > 50 µg/mL | > 50 µg/mL | 0.17 µg/mL | 
5 | 1495_C14 (PGC14) (antibody) |  | > 50 µg/mL | > 50 µg/mL | > 50 µg/mL | > 50 µg/mL | > 50 µg/mL | > 50 µg/mL | > 50 µg/mL | 7.41 µg/mL | > 50 µg/mL | > 50 µg/mL | > 50 µg/mL | > 50 µg/mL | > 50 µg/mL |  | > 50 µg/mL | 40 µg/mL | 
6 | 2G12 (antibody) | > 50 µg/mL | > 50 µg/mL | > 50 µg/mL | 0.59 µg/mL | > 50 µg/mL | > 50 µg/mL | > 50 µg/mL | > 50 µg/mL | 5.3 µg/mL | > 50 µg/mL | > 50 µg/mL | > 50 µg/mL | > 50 µg/mL | > 50 µg/mL | > 50 µg/mL | > 50 µg/mL | 0.49 µg/mL | 
7 | 2F5 (antibody) | > 50 µg/mL | 1.25 µg/mL | > 50 µg/mL | 1.27 µg/mL | > 50 µg/mL | 1.7 µg/mL | 0.1 µg/mL | 13 µg/mL | 0.1 µg/mL | 0.28 µg/mL | 3.3 µg/mL | 0.14 µg/mL | > 50 µg/mL | > 50 µg/mL | 18.8 µg/mL | 7.49 µg/mL | 2.02 µg/mL | 
